# Experimental data from US20160303127A1, “COMBINATION THERAPY WITH C-MET AND EGFR ANTAGONISTS” (Genentech, Inc., priority 2008, published 2016).
# “And” between values parts separate entries of the source, which are not always exact repeats. Equal values may be shown once.
# Tests used:
# Akt = assay: phospho-Akt in NCI-H596 hu-HGF-Tg-SCID xenograft tumors (immunoblot); format: in vivo, human; details: MetMAb 30 mg/kg 24 h, erlotinib 150 mg/kg 6 h prior to harvest, average of 5 animals
# Description: (§1) NCI-H596 hu-HGF-Tg-SCID xenograft tumors: NCI-H596 xenografts were established in hu-HGF-Tg-SCID mice as described in Example 4. Tumors were allowed to grow to 200-300 mm^3 prior to treatment. Dosing was performed as described in Table 8. Briefly, MetMAb (30 mg/kg) or MetMAb buffer was dosed at time zero hours (0 hr) and methylcellulose tween vehicle (MCT) or erlotinib (150 mg/kg) was dosed at time 18 hours (18 hr). Mice were euthanized and tumors and plasma collected at time 24 hours (24 hr). Tumors were snap frozen in liquid nitrogen and then kept at −70° C. until they were processed for immunoprecipitation and immunoblotting.
# Immunoprecipitations and Immunoblotting: To process tumors for protein analysis, tumors were first homogenized using a glass dounce with lysis buffer (Cell Signaling Technology, Inc., Danvers, Mass.), supplemented with 1 mM PMSF, additional protease inhibitor cocktail, and phosphatase inhibitor cocktail I and II (Sigma, Inc., St. Louis, Mo.). […] Protein concentrations were determined using the BCA™ Protein Assay Kit (Pierce, Inc., Rockford, Ill.) and samples were immunoblotted. […] Samples were then analyzed by SDS-PAGE and immunoblotting. […] Immunoblots were imaged and phospho-protein levels were quantified and normalized to total protein levels (e.g. pEGFR over total EGFR) using an Odyssey imager (LI-COR Biosciences, Lincoln, Nebr.). […]
# EGFR = target: T1, EGFR (Homo sapiens, UniProt P00533); assay: EGFR phosphorylation in NCI-H596 hu-HGF-Tg-SCID xenograft tumors (IP/immunoblot); format: in vivo, mouse xenograft; details: MetMAb 30 mg/kg 24 h, erlotinib 150 mg/kg 6 h prior to harvest, average of 5 animals
# T1 construct: endogenous in cells; host or cells: NCI-H596 (human NSCLC) cells grown as xenograft tumours in hu-HGF-Tg-SCID mice; tumour lysate, IP with MI-12-1 and immunoblot
# Description: as §1, with “Tumors” for “NCI-H596 hu-HGF-Tg-SCID xenograft tumors: NCI-H596 xenografts were established in hu-HGF-Tg-SCID mice as described in Example 4. Tumors”
# Immunoprecipitations and Immunoblotting: To process tumors for protein analysis, tumors were first homogenized using a glass dounce with lysis buffer (Cell Signaling Technology, Inc., Danvers, Mass.), supplemented with 1 mM PMSF, additional protease inhibitor cocktail, and phosphatase inhibitor cocktail I and II (Sigma, Inc., St. Louis, Mo.). Lysates were incubated on ice for one hour and then centrifuged at 14,000×g for five minutes and supernatants collected. Protein concentrations were determined using the BCA™ Protein Assay Kit (Pierce, Inc., Rockford, Ill.) and samples were immunoblotted. […] Samples were then analyzed by SDS-PAGE and immunoblotting. […] Immunoblots were imaged and phospho-protein levels were quantified and normalized to total protein levels (e.g. pEGFR over total EGFR) using an Odyssey imager (LI-COR Biosciences, Lincoln, Nebr.). […]
# NCI-H596 cell line = NCI-H596 cell line in vitro; cited from earlier work
Molecule,pAkt/total Akt (Akt; listed as Erlotinib),pEGFR/total EGFR (phosphorylation of EGFR) (EGFR),pAkt/total Akt (Akt),HGF-driven proliferation (NCI-H596 cell line)
"C#Cc1cccc(Nc2ncnc3cc(OCCOC)c(OCCOC)cc23)c1 [erlotinib, N-(3-ethynylphenyl)-6,7-bis(2-methoxyethoxy)-4-quinazolinamine]",45% (+/−25.7%) % of vehicle control and 45 (±25.7) % of vehicle control,–,–,–
"MetMAb: Anti-c-met monovalent monoclonal antibody MetMAb (rhuOA5D5v2) (WO2007/063816) (antibody, chains of the INN, looked up, V domains shown, one-armed) VH: EVQLVESGGGLVQPGGSLRLSCAASGYTFTSYWLHWVRQAPGKGLEWVGMIDPSNSDTRFNPNFKDRFTISADTSKNTAYLQMNSLRAEDTAVYYCATYRSYVTPLDYWGQGTLVTVSS VL: DIQMTQSPSSLSASVGDRVTITCKSSQSLLYTSSQKNYLAWYQQKPGKAPKLLIYWASTRESGVPSRFSGSGSGTDFTLTISSLQPEDFATYYCQQYYAYPWTFGQGTKVEIK",–,62% (+/−21.6%) % of vehicle control and 62 (±21.6) % of vehicle control,72% (+/−27.9%) % of vehicle control and 72 (±27.9) % of vehicle control,blocks HGF-driven proliferation
